22 sequences from the supplement of paper PMC10567573 can be followed below.

This data set is described as follows: protein stability index of a GFP-peptide fusion (GPS, HEK-293T) (PSI 1-6); higher = more stable. As to conditions: c terminus: a fixed tail appended.

± gives the standard deviation.
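Also: 24-mer peptide tiles fused after GFP, lentivirally expressed, FACS-sorted into six equal bins by GFP/DsRed ratio, decoded by Illumina sequencing, PSI is the read-weighted mean bin number.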

In the case of YHINSISVNSDCETYMSADDLRIN [PPP2R2C], the protein stability index by setting is: (treatment: DMSO) 2.89 ± 0.44; (treatment: MLN4924 1 uM, 8 h) 3.2 ± 0.29. The corresponding values for YIGFYGKETTNTCILKCNLCSVNI [PDS5B] are 2.98 ± 1.6 and 2.96 ± 1. The corresponding values for YIMTRDYLTVKVWDLNMENRPIET [PPP2R2B] are 2.16 ± 0.5 and 2.45 ± 0.26. On the same counts, the results for YLILALLSVTISFRIYKSVIQAVQ [RTN3] are 3.42 ± 0.42 and 2.99 ± 0.48. Regarding YLPKNTHPFLYLSLEISPQNVDVN [MLH1], the protein stability index is, setting by setting: (treatment: DMSO) 3.23 ± 1.1; (treatment: MLN4924 1 uM, 8 h) 2.09 ± 0.3. On the same counts, the results for YLVQGLVEECQAALQNKDTYEPFC [KCTD10] are 2.32 ± 0.46 and 2.65 ± 0.24.

Turning to YMLFDPKDSVMQQNLVYYRFHRAR [P3H4], the protein stability index came to 2.26 ± 0.25 (treatment: DMSO) and 2.27 ± 0.53 (treatment: MLN4924 1 uM, 8 h). On the same counts, the results for YMNFRVKACNKAVAGEFSEPVTLE [FSD1] are 3.03 ± 0.29 and 2.93 ± 0.46. The sequence YNIKLKWTNQQKLYSRTGDIVEFV [CFHR2] returned a protein stability index (treatment: MLN4924 1 uM, 8 h) of 2.46 ± 0.41.

Take YPTTLGKDRECQSQSLALKEQNNL [ZNF8]: the protein stability index is, setting by setting: (treatment: DMSO) 4.39 ± 0.16; (treatment: MLN4924 1 uM, 8 h) 4.52 ± 0.19. YQEIFQQLQRSWVKMDQKSKHLKE [TRIM43] showed a protein stability index (treatment: DMSO) of 2.41 ± 0.32 and a protein stability index (treatment: MLN4924 1 uM, 8 h) of 2.6 ± 0.32. Regarding YQLPQMPDVVVRSFMTWLRSYIKL [MED27], the protein stability index is, setting by setting: (treatment: DMSO) 2.01 ± 0.13; (treatment: MLN4924 1 uM, 8 h) 2.25 ± 0.21. On the same counts, the results for YRPLKQELQGLDYCKPTRLDLLLD [SPSB1] are 2.77 ± 0.29 and 2.6 ± 0.32.

With YSLTTSSTHKSSLCKVEIVCPPQS [RAB40A], the protein stability index by setting is: (treatment: DMSO) 2.64 ± 0.19; (treatment: MLN4924 1 uM, 8 h) 2.64 ± 0.12.

Turning to YSQDPVYANGGLNYSYRGYGALSS [NOL4L], the protein stability index reads like this: (treatment: DMSO) 2.4 ± 0.23; (treatment: MLN4924 1 uM, 8 h) 2.71 ± 0.2. The corresponding values for YSRGYRNRRSSRETREYAPPSRGH [RBMY1A1] are 4.38 ± 0.27 and 4.76 ± 0.23. For the sequence YTSSQKVSPIQIDGAGRTWQDSDT [TOR1AIP2], the protein stability index worked out at 3.62 ± 0.36 (treatment: DMSO) and 4.2 ± 0.51 (treatment: MLN4924 1 uM, 8 h). The corresponding values for YVIGGRNETGYLSSVECYNLETNE [KLHL14] are 2.66 ± 0.31 and 3.02 ± 0.59. On the same counts, the results for YVKPQSCIDIVIRHVAPIPSHYDV [MOSPD3] are 2.97 ± 0.74 and 2.74 ± 0.85.

Turning to YYHRRNEMTTTDDLDFKHHNYKEM [CPXM2], the protein stability index reads like this: (treatment: DMSO) 3.22 ± 0.33; (treatment: MLN4924 1 uM, 8 h) 3.35 ± 0.25.

For YYLRKGKKINSNQLENEQSQENSI [SPANXN3], the protein stability index stood at 4.47 ± 0.23 (treatment: DMSO) and 4.23 ± 0.27 (treatment: MLN4924 1 uM, 8 h). On the same counts, the results for YYNVVLLRYQFSRPGPQSVPLQLS [FCHO1] are 3.13 ± 0.43 and 2.91 ± 0.53.
